Measured values: publication PMC4931251, “Characterization of the targeting signal in mitochondrial β-barrel proteins” (Nature Communications, 2016)

Target: T1, cytosolic receptor domain of rat Tom20 (dTom20), uniformly 15N-labelled (Rattus norvegicus, UniProt Q62760 51-145, uniformly [15N]-labelled)
T1 construct: Tom20 from Rattus norvegicus, cytosolic receptor domain, residues 51-145; Cloned into pET-22b without the stop codon; also called [15N]-dTom20; rat dTom20; source: E. coli BL21(DE3), purified (Ni-NTA, gel filtration on Superdex 200)
T1 sequence (looked up): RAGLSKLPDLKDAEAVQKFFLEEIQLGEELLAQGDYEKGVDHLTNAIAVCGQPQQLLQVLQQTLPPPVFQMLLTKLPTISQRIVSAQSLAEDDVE
Experiment: NMR titration; [1H,15N]-HSQC of 210 μM [15N]-dTom20 in 20 mM KPi pH 6.4, 50 mM KCl, 5% DMSO; aliquots of 10 mM unlabelled cyclic peptide in DMSO added (two molar excess); DMSO effect subtracted
Conditions: both partners purified

B1: cyclic β-hairpin peptide derived from human voltage-dependent anion channel 1 (hVDAC1) (peptide)
peptide: LTLSALLDGKNVNAGGHKLGLGLPP
modifications: head-to-tail cyclised: the new C terminus (after the two added Pro) covalently linked to the N terminus
notes: human voltage-dependent anion channel 1 (hVDAC1), last two β-strands and the loop between them, a.a; L257 to L279; residue numbers correspond to full-length hVDAC1; two Pro residues added to the C terminus (told in words); Measured mass [M+H]+ = 2,436.48; also called cyclic peptide; source: synthetic peptide (Fmoc/tBu chemistry, cyclised, purified by RP-HPLC)
B1: binds.
